{"source": "patent US20160271244A1", "binders": {"B1": {"name": "CH01 (antibody, V domains shown)", "VH": "EVQLVESGANVVRPGGSLRLSCKASGFIFENFGFSWVRQAPGKGLQWVAGLNWNGGDTRYADSVKGRFRMSRDNSRNFVYLDMDKVGVDDTAFYYCARGTDYTIDDAGIHYQGSGTFWYFDLWGRGTLVSVSS", "VL": "EIVLTQSPGTLSLSPGERATLSCRASHNVHPKYFAWYQQKPGQSPRLLIYGGSTRAAGIPGKFSGSGSGTDFTLTISRVDPEDFAVYYCQQYGGSPYTFGQGTKVEI"}}, "molecular_target": "Env (gp120) of HIV-1 JRCSF.N160K (HIV-1), P20871", "assay": "cell-based or functional assay"}
{"binder": "B1", "values": [{"measurement": "IC50 (virus neutralization)", "result": "> 50", "unit": "µg/mL"}, {"measurement": "IC80 (virus neutralization)", "result": "> 50", "unit": "µg/mL"}]}
